From patent US20150219657A1 come the findings set out here.

Square brackets hold non-standard residues; d marks the D form. Ends that are not written are not given here. S1 = acylated D-Pra whose alkyne is clicked through a 1,2,3-triazole to acylated azidolysine-PEG2-biotin; dPra = C#CC[C@@H](N)C(=O)O

Assay [1] has as its target Active Akt2 (with N terminal His6 tag) (human) (UniProt P31751). In words: summary sentence of Example 1; method not given.
For assay [2] the target is unchanged. In words: single component ELISA, N-tL as surface-localized capture agent (FIG. 23A).
Assay [3] has the same target. In words: SPR, Biacore T100, biotinylated N-tL on SA chip, Akt2 protein as analyte, 10° C., 1:1 binding model.
For assay [4] the target is unchanged. Nature of the assay: single-component ELISA, mono-L as detection agent (FIG. 23A, given there as EC50).
For assay [5] the target is unchanged. In words: single-component ELISA, bi-L as detection agent (FIG. 23A, given there as EC50).

Chain of Active Akt2 (with N terminal His6 tag) (human) (P31751 other isoform, or with tags, fused parts or gaps): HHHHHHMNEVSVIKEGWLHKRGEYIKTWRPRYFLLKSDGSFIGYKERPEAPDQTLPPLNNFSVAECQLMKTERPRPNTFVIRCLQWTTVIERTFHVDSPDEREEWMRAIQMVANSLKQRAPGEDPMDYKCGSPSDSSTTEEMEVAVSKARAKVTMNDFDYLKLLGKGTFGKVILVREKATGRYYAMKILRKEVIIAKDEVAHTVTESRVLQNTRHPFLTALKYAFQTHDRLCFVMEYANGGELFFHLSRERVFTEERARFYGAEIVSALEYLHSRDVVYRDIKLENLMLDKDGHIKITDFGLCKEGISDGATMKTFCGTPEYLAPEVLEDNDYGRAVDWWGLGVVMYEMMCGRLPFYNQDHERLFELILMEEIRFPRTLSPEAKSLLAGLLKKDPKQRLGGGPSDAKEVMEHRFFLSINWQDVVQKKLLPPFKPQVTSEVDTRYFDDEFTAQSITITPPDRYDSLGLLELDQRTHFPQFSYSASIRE

B1: N-tL (designed binder)
peptide 1: [dW][dK][dV][dK][dL]
peptide 2: [dH][dN]G[dY][dF]
peptide 3: Ac-[dPra][dY][dY][dR][dF]G-NH2
modifications: triazole (positions not given here); not fully specified (N-terminus, bridges); also: C-terminal D-Pra clicked via triazole to L-azidolysine of S4, arm not given here, N-terminus coupled to S4 (azidolysine-PEG2-biotin)
Consider B1, for which, in assay [1], the affinity came out at 20 nM. Further, the concentration for a half-maximal effect (EC50) in assay [2] amounted to 19 nM. The equilibrium dissociation constant (Kd) in assay [3] stood at 25 nM.

For the molecule S1-[dW][dK][dV][dK][dL]-NH2 (designed binder) [mono-L], the affinity in assay [4] was determined as 3 µM.

B2: bi-L (designed binder)
peptide 1: [dW][dK][dV][dK][dL]-NH2
peptide 2: [dH][dN]G[dY][dF][dPra]
modifications: also: arms joined via S3 linker (azide, PEG2-biotin) coupled to the wkvkl N-terminus, biotin-PEG2 label, triazole to a chain's N/C-terminus via S3 linker
Turning to B2, the affinity in assay [5] was determined as 1 µM.
